Drawing on patent US20150174265A1 (MIT, published 2015), this text covers Kd and binding signal for 2 molecules.

A word on the Kd: it is the free concentration of one partner at which half of the binding sites on the other are occupied at equilibrium, for simple one-to-one binding.

Data set [1] deals with E6N2 (anti-EGFR Fn3 clone E6 - mouse IgG2a Fc - PKR dsRBD) C121V,C135V (Homo sapiens). The data set is described as follows: flow.
In data set [2] the target is epidermal growth factor receptor (EGFR) on human cancer cell lines (human, UniProt P00533 25-1210).

With “AllStars Negative Control siRNA, Alexa 488 labeled”, in data set [1], the dissociation constant Kd came out at 3.5 nM and the binding signal was over 100 fold.

B1: E6N2 (Fc fusion)
chain: VSDVPRDLEVVAATPTSLLISWFDYAVTYYRITYGETGGNSPVQEFTVPGWISTATISGLKPGVDYTITVYAVTDNSRWPFRSTPISINYRTEIDKPSQ
B1 had a Kd in data set [2] of about 2.1 nM.
